Paper PMC8297500
Several values for one entry are separate records, joined by “and”; a condition that tells them apart may be missing. Identical values can stand only once.

Columns and labels:
[1] = target: Theileria parva schizont antigen Tp2, bacterially expressed recombinant protein with His-tag (Theileria parva (Muguga)); assay: SEC-MALS; apparent dimer fraction from preparative SEC; FPLC (Shimadzu) with Wyatt scattering and refractive index detectors
[2] = target: Theileria parva schizont antigen Tp2, bacterially expressed recombinant protein with His-tag (Theileria parva (Muguga)); assay: SEC; preparative SEC (Generon ProteoSEC 3-70 kD) after affinity chromatography; 20 mM PO4, 250 mM NaCl, 0.02% NaN3, pH 7.5; apparent masses from elution times

In the case of “Theileria parva schizont antigen Tp2, bacterially expressed recombinant protein with His-tag (natural protein)”, the stoichiometry N [1] is reported as 2 and the stoichiometry N [2] is reported as 4 and 2.
